Source: publication PMC3469515 (Molecular Biology of the Cell, 2012)

Molecular target: the molecule itself
Experiment: AUC

B1: Mid1p construct M1-14 (residues 1–578) (domain or fragment, S. pombe, UniProt P78953 1-578, looked up)
chain: MKEQEFSYREAKDVSLDSKGLENSFLSSPNREKTPLFFEGNSNETSGYDQTKNFTHGDGDMSLGNLSELNVATDLLESLDLRSMYMHGYGHLDSSFSSQHSPDNRKRMSSTSVFKRINSEEEGRIPSLTYSAGTMNSTSSSTASLKGADIVADYETFNPDQNLAELSFDRSKSSRKRAVEVAEFSRAKTMSPLEYTVQHPYQSHNELSTNPARARAGSVPNLARIPSDVKPVPPAHLSASSTVGPRILPSLPKDTTEDNPALERVETTASLDMDYKPLEPLAPIQEAPVEDTSEPFSSVPEATLDDSDISTESLRKKVLAKMEAKRISSGSSYASTLRKVYDFSELSLPTNGKDYDELYLQSSRNSEPEISTIINDSLQQENMDEDISATSIPKSQAAYGHGSVTYHEVPRYNLTSASVGYSISSQRGRIKSSSTIDNLSAILSSEDLRHPSMQPVPGTKRTYSNYCENEPNKSSQSLVSSESHNVEGWNYSETGTVGFYDPSAEISASIDELRQSTPVARDSELLSRAHSFDLNRLDLPSQDKSTSYEVPNGTENQSPRPVTSLGFVNETFFEEKPK
stoichiometry N: > 8
